In test [1] the target is T1, Cul1•^GSTRbx1 (UniProt Q13616 1-776; P62877 1-108). The experiment in a line: pull-down.
The target of test [2] is T1, Cul1•^GSTRbx1. The experiment in a line: pull-down. This is another data set of the same source.
Test [3] has as its target T2, Cul1^AMC•Rbx1 (UniProt Q13616 1-776; P62877 1-108, AMC on the C-terminus (GGGG^AMC peptide joined by sortase)). The experiment in a line: FRET or BRET. Background: In BRET a luciferase serves as donor, and the signal depends on an acceptor being close.
Test [4] addresses T2, Cul1^AMC•Rbx1. The test is described as follows: FRET or BRET. This is another data set of the same source.
Test [5] deals with T1, Cul1•^GSTRbx1. The experiment in a line: pull-down. The source holds these as a separate data set.

Like-named read-outs stand apart in the source and are kept apart here.

T1 sequence (Q13616 whole entry, chain 1 of 2): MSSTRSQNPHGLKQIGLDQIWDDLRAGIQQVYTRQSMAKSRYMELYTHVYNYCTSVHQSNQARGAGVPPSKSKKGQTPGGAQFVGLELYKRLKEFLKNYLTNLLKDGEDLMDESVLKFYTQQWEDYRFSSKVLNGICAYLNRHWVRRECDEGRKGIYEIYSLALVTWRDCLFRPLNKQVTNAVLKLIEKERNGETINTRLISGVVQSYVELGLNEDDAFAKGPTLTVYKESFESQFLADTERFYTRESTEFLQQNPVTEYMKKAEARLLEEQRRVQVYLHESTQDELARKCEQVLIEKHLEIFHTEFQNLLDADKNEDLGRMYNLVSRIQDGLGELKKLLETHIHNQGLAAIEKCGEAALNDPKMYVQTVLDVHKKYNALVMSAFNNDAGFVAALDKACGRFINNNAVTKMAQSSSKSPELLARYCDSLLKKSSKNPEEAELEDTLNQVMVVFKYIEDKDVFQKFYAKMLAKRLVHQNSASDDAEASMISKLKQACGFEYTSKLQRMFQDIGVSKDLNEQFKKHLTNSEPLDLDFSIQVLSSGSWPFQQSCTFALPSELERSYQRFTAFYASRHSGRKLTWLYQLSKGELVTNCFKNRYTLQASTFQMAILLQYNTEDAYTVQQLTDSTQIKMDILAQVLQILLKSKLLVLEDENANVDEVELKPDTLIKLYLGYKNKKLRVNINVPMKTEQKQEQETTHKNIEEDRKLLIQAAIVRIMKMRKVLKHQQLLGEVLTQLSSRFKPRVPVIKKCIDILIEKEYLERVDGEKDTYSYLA
T1 sequence (P62877 whole entry, chain 2 of 2): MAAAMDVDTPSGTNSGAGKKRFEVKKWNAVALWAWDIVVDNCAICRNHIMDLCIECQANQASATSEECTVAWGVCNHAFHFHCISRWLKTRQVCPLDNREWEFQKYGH
T2 sequence (Q13616 whole entry, chain 1 of 2): as the sequence (Q13616 whole entry, chain 1 of 2) above
T2 sequence (P62877 whole entry, chain 2 of 2): as the sequence (P62877 whole entry, chain 2 of 2) above

B1: Cand1^1-603 (domain or fragment, UniProt Q86VP6 1-603, looked up)
chain: MASASYHISNLLEKMTSSDKDFRFMATNDLMTELQKDSIKLDDDSERKVVKMILKLLEDKNGEVQNLAVKCLGPLVSKVKEYQVETIVDTLCTNMLSDKEQLRDISSIGLKTVIGELPPASSGSALAANVCKKITGRLTSAIAKQEDVSVQLEALDIMADMLSRQGGLLVNFHPSILTCLLPQLTSPRLAVRKRTIIALGHLVMSCGNIVFVDLIEHLLSELSKNDSMSTTRTYIQCIAAISRQAGHRIGEYLEKIIPLVVKFCNVDDDELREYCIQAFESFVRRCPKEVYPHVSTIINICLKYLTYDPNYNYDDEDEDENAMDADGGDDDDQGSDDEYSDDDDMSWKVRRAAAKCLDAVVSTRHEMLPEFYKTVSPALISRFKEREENVKADVFHAYLSLLKQTRPVQSWLCDPDAMEQGETPLTMLQSQVPNIVKALHKQMKEKSVKTRQCCFNMLTELVNVLPGALTQHIPVLVPGIIFSLNDKSSSSNLKIDALSCLYVILCNHSPQVFHPHVQALVPPVVACVGDPFYKITSEALLVTQQLVKVIRPLDQPSSFDATPYIKDLFTCTIKRLKAADIDQEVKERAISCMGQIICNLGDN
B1: the binding result with Cul1•^GSTRbx1 [1] is “binds”.

B2: ^ΔH1Cand1 (domain or fragment, UniProt Q86VP6 15-1230, looked up)
chain: MTSSDKDFRFMATNDLMTELQKDSIKLDDDSERKVVKMILKLLEDKNGEVQNLAVKCLGPLVSKVKEYQVETIVDTLCTNMLSDKEQLRDISSIGLKTVIGELPPASSGSALAANVCKKITGRLTSAIAKQEDVSVQLEALDIMADMLSRQGGLLVNFHPSILTCLLPQLTSPRLAVRKRTIIALGHLVMSCGNIVFVDLIEHLLSELSKNDSMSTTRTYIQCIAAISRQAGHRIGEYLEKIIPLVVKFCNVDDDELREYCIQAFESFVRRCPKEVYPHVSTIINICLKYLTYDPNYNYDDEDEDENAMDADGGDDDDQGSDDEYSDDDDMSWKVRRAAAKCLDAVVSTRHEMLPEFYKTVSPALISRFKEREENVKADVFHAYLSLLKQTRPVQSWLCDPDAMEQGETPLTMLQSQVPNIVKALHKQMKEKSVKTRQCCFNMLTELVNVLPGALTQHIPVLVPGIIFSLNDKSSSSNLKIDALSCLYVILCNHSPQVFHPHVQALVPPVVACVGDPFYKITSEALLVTQQLVKVIRPLDQPSSFDATPYIKDLFTCTIKRLKAADIDQEVKERAISCMGQIICNLGDNLGSDLPNTLQIFLERLKNEITRLTTVKALTLIAGSPLKIDLRPVLGEGVPILASFLRKNQRALKLGTLSALDILIKNYSDSLTAAMIDAVLDELPPLISESDMHVSQMAISFLTTLAKVYPSSLSKISGSILNELIGLVRSPLLQGGALSAMLDFFQALVVTGTNNLGYMDLLRMLTGPVYSQSTALTHKQSYYSIAKCVAALTRACPKEGPAVVGQFIQDVKNSRSTDSIRLLALLSLGEVGHHIDLSGQLELKSVILEAFSSPSEEVKSAASYALGSISVGNLPEYLPFVLQEITSQPKRQYLLLHSLKEIISSASVVGLKPYVENIWALLLKHCECAEEGTRNVVAECLGKLTLIDPETLLPRLKGYLISGSSYARSSVVTAVKFTISDHPQPIDPLLKNCIGDFLKTLEDPDLNVRRVALVTFNSAAHNKPSLIRDLLDTVLPHLYNETKVRKELIREVEMGPFKHTVDDGLDIRKAAFECMYTLLDSCLDRLDIFEFLNHVEDGLKDHYDIKMLTFLMLVRLSTLCPSAVLQRLDRLVEPLRATCTTKVKANSVKQEFEKQDELKRSAMRAVAALLTIPEAEKSPLMSEFQSQISSNPELAAIFESIQKDSSSTNLESMDTS
As for B2, the “fold increase of KD over WT Cand1” value with Cul1•^GSTRbx1 [2] was ~4.5 fold. For the same molecule, the “fold of koff (fast phase) over WT Cand1” value with Cul1^AMC•Rbx1 [3] amounted to 21 fold.

B3: ^FlAsHΔH1Cand1 (domain or fragment, UniProt Q86VP6 15-1230, looked up)
chain: MTSSDKDFRFMATNDLMTELQKDSIKLDDDSERKVVKMILKLLEDKNGEVQNLAVKCLGPLVSKVKEYQVETIVDTLCTNMLSDKEQLRDISSIGLKTVIGELPPASSGSALAANVCKKITGRLTSAIAKQEDVSVQLEALDIMADMLSRQGGLLVNFHPSILTCLLPQLTSPRLAVRKRTIIALGHLVMSCGNIVFVDLIEHLLSELSKNDSMSTTRTYIQCIAAISRQAGHRIGEYLEKIIPLVVKFCNVDDDELREYCIQAFESFVRRCPKEVYPHVSTIINICLKYLTYDPNYNYDDEDEDENAMDADGGDDDDQGSDDEYSDDDDMSWKVRRAAAKCLDAVVSTRHEMLPEFYKTVSPALISRFKEREENVKADVFHAYLSLLKQTRPVQSWLCDPDAMEQGETPLTMLQSQVPNIVKALHKQMKEKSVKTRQCCFNMLTELVNVLPGALTQHIPVLVPGIIFSLNDKSSSSNLKIDALSCLYVILCNHSPQVFHPHVQALVPPVVACVGDPFYKITSEALLVTQQLVKVIRPLDQPSSFDATPYIKDLFTCTIKRLKAADIDQEVKERAISCMGQIICNLGDNLGSDLPNTLQIFLERLKNEITRLTTVKALTLIAGSPLKIDLRPVLGEGVPILASFLRKNQRALKLGTLSALDILIKNYSDSLTAAMIDAVLDELPPLISESDMHVSQMAISFLTTLAKVYPSSLSKISGSILNELIGLVRSPLLQGGALSAMLDFFQALVVTGTNNLGYMDLLRMLTGPVYSQSTALTHKQSYYSIAKCVAALTRACPKEGPAVVGQFIQDVKNSRSTDSIRLLALLSLGEVGHHIDLSGQLELKSVILEAFSSPSEEVKSAASYALGSISVGNLPEYLPFVLQEITSQPKRQYLLLHSLKEIISSASVVGLKPYVENIWALLLKHCECAEEGTRNVVAECLGKLTLIDPETLLPRLKGYLISGSSYARSSVVTAVKFTISDHPQPIDPLLKNCIGDFLKTLEDPDLNVRRVALVTFNSAAHNKPSLIRDLLDTVLPHLYNETKVRKELIREVEMGPFKHTVDDGLDIRKAAFECMYTLLDSCLDRLDIFEFLNHVEDGLKDHYDIKMLTFLMLVRLSTLCPSAVLQRLDRLVEPLRATCTTKVKANSVKQEFEKQDELKRSAMRAVAALLTIPEAEKSPLMSEFQSQISSNPELAAIFESIQKDSSSTNLESMDTS
modifications: FlAsH (Lumio Green) on the N-terminal tetracysteine tag
Consider B3, for which binding with Cul1^AMC•Rbx1 [4] was put at a Kd of 0.7 pM.

B4: Cand1 (natural protein, UniProt Q86VP6 1-1230, looked up)
chain: MASASYHISNLLEKMTSSDKDFRFMATNDLMTELQKDSIKLDDDSERKVVKMILKLLEDKNGEVQNLAVKCLGPLVSKVKEYQVETIVDTLCTNMLSDKEQLRDISSIGLKTVIGELPPASSGSALAANVCKKITGRLTSAIAKQEDVSVQLEALDIMADMLSRQGGLLVNFHPSILTCLLPQLTSPRLAVRKRTIIALGHLVMSCGNIVFVDLIEHLLSELSKNDSMSTTRTYIQCIAAISRQAGHRIGEYLEKIIPLVVKFCNVDDDELREYCIQAFESFVRRCPKEVYPHVSTIINICLKYLTYDPNYNYDDEDEDENAMDADGGDDDDQGSDDEYSDDDDMSWKVRRAAAKCLDAVVSTRHEMLPEFYKTVSPALISRFKEREENVKADVFHAYLSLLKQTRPVQSWLCDPDAMEQGETPLTMLQSQVPNIVKALHKQMKEKSVKTRQCCFNMLTELVNVLPGALTQHIPVLVPGIIFSLNDKSSSSNLKIDALSCLYVILCNHSPQVFHPHVQALVPPVVACVGDPFYKITSEALLVTQQLVKVIRPLDQPSSFDATPYIKDLFTCTIKRLKAADIDQEVKERAISCMGQIICNLGDNLGSDLPNTLQIFLERLKNEITRLTTVKALTLIAGSPLKIDLRPVLGEGVPILASFLRKNQRALKLGTLSALDILIKNYSDSLTAAMIDAVLDELPPLISESDMHVSQMAISFLTTLAKVYPSSLSKISGSILNELIGLVRSPLLQGGALSAMLDFFQALVVTGTNNLGYMDLLRMLTGPVYSQSTALTHKQSYYSIAKCVAALTRACPKEGPAVVGQFIQDVKNSRSTDSIRLLALLSLGEVGHHIDLSGQLELKSVILEAFSSPSEEVKSAASYALGSISVGNLPEYLPFVLQEITSQPKRQYLLLHSLKEIISSASVVGLKPYVENIWALLLKHCECAEEGTRNVVAECLGKLTLIDPETLLPRLKGYLISGSSYARSSVVTAVKFTISDHPQPIDPLLKNCIGDFLKTLEDPDLNVRRVALVTFNSAAHNKPSLIRDLLDTVLPHLYNETKVRKELIREVEMGPFKHTVDDGLDIRKAAFECMYTLLDSCLDRLDIFEFLNHVEDGLKDHYDIKMLTFLMLVRLSTLCPSAVLQRLDRLVEPLRATCTTKVKANSVKQEFEKQDELKRSAMRAVAALLTIPEAEKSPLMSEFQSQISSNPELAAIFESIQKDSSSTNLESMDTS
For B4, in the test with Cul1•^GSTRbx1 [5], the binding result was “binds”.

As a reminder, the Kd is a measure of binding affinity in units of concentration. The low end stands for higher affinity, the high end for lower affinity.
